Results reported in the nanobody polyreactivity screen of Harvey et al. (2022).

Assay: yeast display, Sf9 membrane polyspecificity reagent, FACS + sequencing; frameworks hold sequencing errors
Procedure, shortened: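 Sorting gates, low and high (top ~1%), were placed on anti-HA fluorescence to track expression and on streptavidin fluorescence to track reagent binding. A clone's polyreactivity label is taken from the gate it came out of. The reagent was 10% biotinylated, detergent-solubilized Sf9 membrane, applied for 1 hour at 4 °C to galactose-induced yeast display cells.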

Sequence | polyreactivity (PSR sort gate)
QVQLVESGGGLDQAGGRLPLTWAASGFTFWKYAMGLYRQAPGKERELVAANSVSGGRTYYADSVKGRFTISRDNAKNTVSLQMNRLKPEDTAVYFCNATPWRPYVGGEYWGQGTQVTVSS | high polyreactivity
QVQLVESGGGLVQAGGSLSLSCAASGRIFSLNVMGWYSQARGKERELVATIRGRGTSTYYADSVKGRFTISRDTAKNTVYLQMNSLKPEDTAVFYCAARGHGAYGYWGQGTQVTVSS | low polyreactivity
QVQLVESGGGLVQAGGSLRFSCAASGSTFRPNAMGWYRPAPGKERELVAAISRSGVSTYYADSVKGRFTISRDNAKNTVYLQMNSLKPEDTAVYYCAAKLVVSYGQEYDYWGQGTQVTVSS | low polyreactivity
QVQLVESGGGLVQAGGSLRLSCAASGSTSYWYAMGWYRQAPGKERELVAAISSDDSTNYADSVKGRFTISRDNAKNTVYLQMNSLKPEDTAVYYFNREHYLIRYDYWGQGTQVTVSS | low polyreactivity
QVQLVESGGGLVQAGGSLRLSCAASGPTFPFNAMGWYRQAPGKERELVAAISWRDGRTYYADSVKGRFTISRDYAKNTVYLQMNSLKPEDTAVYYCNVVKRRSDWGMDYWGQGTQVTVSS | high polyreactivity
QVQLVESGGGLVQAGGSLRLSCAATGSIFGIYTMGWDRQAPGKERELVAAIRRSGSTNYADSVKGRFTISRDNEKNTVYLQMNSLKPEDSAVYYCAADALSDEYDYWGQGTQVTVSS | low polyreactivity
QVQLVESGGGLVQAGGSLRLSCAASGSIFPKYAMGWYRQAPGKERELVAAITSSGGRTYYADSVKGRFSISRDNAKNTVYLQMNSLKPEDTAVYYCAARYRREAAYGFDYWGQGTQVTVSS | high polyreactivity
QVQLVESGGGLVQAGGSLRLSCAASGSTYTNAMGWYRQAPGKERELVAAITWSGGTTYYADSVKGRFTISLDNAKNTVYLPMNSLKPEDTAVYYCAAEYRWYSWGQGTQVSVSS | high polyreactivity
QVQLVESGGGIVQAGGSLRLISAASGRTYKSYTIGWYRQAPGKEREFVAAISSRGGNTYYADSVKGRFTISRDNAKNTVYLQMNSLKPEDTAVYYCAARYGYSYDRRDYWGQGTQVTVSS | high polyreactivity
QVQLVESGGGLVQAGGSLRLSCAASGRIFTYYAKGWYRQAPGKERELVAAISWSGGSTYYADSVKARITISRDNAKKTVYLVMNSLNPEDTAVYYCNAVYPSVYPVSTRYYWGQGTQVTVSS | high polyreactivity
QVQLVESGGGLVQAGGSLRLSCAASGFTFKYYAMGWYRQAPGKERELVAVISSSGGSTYYADSVKGRFTISRDNAKNTVYLQMNSLKPEDTAVYYCAAELVYRYYVKDADDYWGQGTQVTVSS | low polyreactivity
QVQLVESGGGLVQAGGSLRLSCAASVSIFTAYPRGWYRQAPGKERELVAAISNGGSTYYADSVKGRFTISRDNAKNTVYLQMNSLKQEDTAVYYCAADSVQFQPDDEYWGQGTQVTVSS | low polyreactivity
QVQLVESGGGLVQAGGSLRLSCAASGGTFAYKAMGWYRQAHGKERQLVAAITSSGGSTYYADSVKGRFTISRDNAKNTVYLQMNRLKPEDTAVYYCNRLRNRSLGGYYYWGQGTQVTVSS | high polyreactivity
QVQLVESGGCLVQAGGSLRLSCAASGFTFSYYAMGWYRQAPGKERELVAAISSSSGTTYYADSVKRRFTISRDNANNTVYLQMNSLKPEDTAVYYCVVIARDGYDYWGQGTQVTVSS | high polyreactivity
QVQLVESGGGLVQAGGSLRLSCAASGFIFQSYAMGWYRQAPGKERELVAAISSRGGSTYYADSVKGRFTISRDIAKNTVYLQMNSLKPEDTAVYYCAADLYGNEYDYWGQGTQVTVSS | low polyreactivity
QVQLVESGGGLVQAGGSLRLSCAASGFIFQRYAMGWYRQAPGKERELVAAISWSGGITYYADSVKGRFTISRDNAKNTVYLQMNSLKPEDTAVYYCAAGLAVGDYYWGQGTQVTVSS | high polyreactivity
QVQLVESGGGLVQAGGSLRLSCAASGRTFSYYAMGWYRQAPGKERELVAAISSGGSTYYADSVKGRFTISRDNAKNTVYLQMNRLKPEDTAVYYCAKEYKQALGHVSFDYWGQGTQVTVSS | low polyreactivity
QVQLVESGGGLVQAGGSLRLSCAASGITFYFYAMGWYRQAPGKERELVASITSSGSTDYADSVKGRFTISRDNAKNTVYLQMNSLKPEDTAVSYCAADVQKHFYSFGDERGFPFDYWGQGTQVTVSS | low polyreactivity
QVQIVESGGGLVQAGGSLRLSCAASGRIFVVNDMGWYRPATGKERELVAAINSGGRTNYADSVKGRFTISRDNAKNTVDLQMNSLKREATAVYFCNAKRTGPWFLHVPVYYWGQGTQVTVSS | low polyreactivity
QVQLVESGGGLVQAGGSLRLSCAASGRTFYGYTMGWYRPAPGKERELVAAITYSGDSTYYADSVKGRFTISRDNAKNTVYLQLNSLKPEDTAVYYCNAVGRYPVYWWGYYYWGQGTQVTVSS | high polyreactivity
QVQLVESGGGLVQAGGSLRLSCAASGFIFGGYAMGWYRQAPGKERELVAAISRSGGSTYYADSVKGRFTISRDNEKNTVYLQMNSVKPEDTAVYYCNAVPRRQGFNYWGQCTQVTVSS | high polyreactivity
QVQLVESGGGLVQAGGSLRLSCAASGRIFTPYAMGWYRQAPGKERELVAGISSSGGSTYYADSVKGRFTISRDNAKNTVYLQMNSLKPEDTAVYFCNKRYRGTPRSYDYWGQGTQVTVSS | high polyreactivity

Sequence | polyreactivity (PSR sort gate)
QVQLVESGGGLVQAGGSLRLSCAASGSILDGNAMGWYIQAPGKERELVAAISWNGARTYYADSVKGRFTISRDNAKNTVYLQMNSLKPEDTAVFYCAARRGSGKFGKYRGVDYWGQVTQVTVSS | high polyreactivity
QVQLVESGGGLVQAGGSLRLSCAASGYTFQHYAMGWYRQAPGKERELVAAITRRGSGTYYADSVKGRFTSSRDNAKNTVYLQMNSLKPEDTAVYYCAAAVGHGVDYWGQGTQVTVSS | high polyreactivity
QVQLVESGGGLVQAGGSLRLSCAASGRIFGYYAMGWYRQAPGKERELVAGIDWSGGNTYYADSVKGRFTISRDNAKNTVYLQMNSLKPEDTAVYYCNTVGGRDTAWYDYWGQGTQVTVSS | low polyreactivity
QVQLVESGGGLVQAGGSLRLSCAASGSIFVTYAMGWYRPAPGKERELVAAISTSGGSTYADSVKGRFTISRDNAKNTVYLQMNSLKPVDTAVYYCNADDPGYAVPWYWFKYDYWGQGTQVTVSS | low polyreactivity
QVQLVESGGGLVQAGGSLRLSCAASGFTFYAYAMGWYREAPGKERELVATIRRSTGSTYYADSVKGRFTISRDNAKNTVYLQMNSLKQQDTAVYYFATRVWFPITSYDYWGQGTQVTVSS | low polyreactivity
QVQLVESGGGLVQAGGSLRLSCAASGRIFNVYAMGWYRQAPGKERELVASITSAGSTYYADSVKGRFTISRDNAKNTVYLQMNSLKPEDTAVYYCAADSYSVYYYTYDSWGQGTQVTVSS | low polyreactivity
QVQLVESGGGLVQAGGSLRLSCAASGSIFQYYGMVWYRQAPGKERELVASISRSGGSTYYADSVKGRFTISRDNAKNTVYLQMNSLKPEDTAVYYCNAKEPIRRTHLTSTYRDGYWGQGTQVTVSS | low polyreactivity
QVQLVESGGGLVQAGGSLRLSCAASGYIFPAYGMGWYIQAPGKERELVAAISWSTGSTYYADSVKGRFTISRDNAKNTVYLQMNSLKPEDTAVYYCDAGRPRRVPDHWYIYYYWGQATQVTVSS | low polyreactivity
QVQLVESGGGLVQAGGSLRLSCAASGSIFNHYAMGWYRQAPGKERELVATITDGGSTYYADSVKGRFTISRDNAKNTVYLQMNSLKPEDTAVYYCATDRRRFWVIYYYWGQGTQVTVSS | low polyreactivity
QVQLVESGGGLVQAGGSLRLSCAASGRIFQANAMGWYRQAPGKERELVASISSGGSTNYADSVKGRFTISRDNAKNTVYLQMNSLKPEDTAVYYCAARHPSSAYWVGYYWYDYWGQGTQVTVSS | low polyreactivity
QVQLEESGGSLVQAAGSLRLSCAASGSIFSPYAMGWYRQAPGKERELVAAITWRGGTFYADSVKGRFTISRDNAKNTVDLQMNSLKPEDTAVYYCNARFGQTVKGTYGRYYYWGQGTHVTVSS | high polyreactivity
QVQLVESGGGLVQAGGSLRLSCAASGSTFAWNAMGWYIQAPGKERELVAAISYSGGTTYYADSVKGRFTISRDNAKNTVYLQMNSLKPEDTAVYYCAKWEGHGRNPWGAGTEGDYWGQGTQVTVSS | low polyreactivity
QVQLVESGGGLVQAGGSLRLSCAASGFTFRRNAMGWYRQAPGKERELVAAISRGGSSTYYADSVKGRFTISRDNAKNTVYLQMNSLKPEDTAVYYCGARIPNQQGYGYWGQVTQVTVSS | high polyreactivity
QVQLVESGGGLVQAGGSLRLSCAASGRIFVYYAMGWYSQAPGKERELVASISYSGASTYYADSVKGRFTISRDNAKNTVYLQMNSLKPEDTAVYYCNTDGDDFFHVIYDYWGQGTQVTVSS | low polyreactivity
QVQLVESGVGVVQAGGSLRLSCAASGSTYVDNAMGWYRQAPGKERELVAGNSWSGASTYYADSVKGRFTISRDNAKNTFYLQMNSLKAEDTAVYYCATRVRAYYHQSWGYTERVYWGQGTQVTVSS | high polyreactivity
QVHLVESGGGLVQAGGSLRLSCAASGFTFVRNAMGWYRQAPGKERELVAAISGSGGSTYYADSVKGRFTISRDTAKNTVYLQMNSLKPEDTAVYYCAAGWTRGWSLDYYYWGQGTQVTVSS | high polyreactivity
QVQLVESGGGLVQAGGSLRLSCAASGNTLWRNAMGWSRQAPGKERELVATISSVGTYYADSVKGRFTISRDNAKNTVYLQMNSLKPEDTAVYYCAARIWAFYSRRYYWGQGTQVTVSS | high polyreactivity
QDQLVESGGGLVQAGGSLRLSCAASGSTFQWYAMVWYRQAPGKERELVAAINKSGGTTYYADSVKGRFTISRDNAKNTVYLQMNRLKPEDTAVYYCATDNPVVYQPGNLDYWVQGTQVTVSS | low polyreactivity
QVQLVESGGGLVQAGGSHRLSGAASGFIFFYYDMGWYRQAPGKERELVAAISWSGSSTYYADSVNGRFTISRDNAKNTVYLQMNSLNTEDTAVYYCAARYAPSQDWDEYYYWGQGTQVTLSS | low polyreactivity
QVQLVESGGGLVQAGASLRLSCAASGITFLDYAMGWYRQAPGTEREMVAVITWNDGSTYYADSVKGRFTISRDNAKNTVYLQMNSLKPEDTAVYYCAAEYADSWSAFDWNYYYWGQGTQVTVSS | high polyreactivity
QVQLVESGGGLVQAGGSLRLSFAASGFTFRYYVMGWYRQAPGKERELVASISRGGSTTNYADSVKGRFTISRDNAKNTVFLQMNSLKPEDTAVYDCNVVITPGYSYDISRGEGYWGQGTQVTVSS | high polyreactivity
